From the supplement of paper PMC5998384

How the values were obtained:
HeLa Kyoto [1] = assay: solubility change mitosis vs G1/S (difference of NP-40 vs SDS log2 ratios) (log2 ratio difference); higher = more soluble in mitosis
HeLa Kyoto [2] = assay: melting temperature (median over replicates), in situ; higher = more thermally stable
HeLa Kyoto [3] = assay: thermal stability score vs G1/S (z-score of summed log2 fold changes over temperatures); higher = more thermally stable than in G1/S
[4] = cell cycle stage: early G1 (4.5 h after nocodazole release)
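Throughout, for melting temperature (median over replicates), in situ: HeLa Kyoto cells synchronized by double thymidine or nocodazole block, proteins quantified by TMT10plex mass spectrometry, three independent biological replicates.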
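Throughout, for solubility change mitosis vs G1/S (difference of NP-40 vs SDS log2 ratios): synchronized HeLa Kyoto cells (double thymidine block for G1/S, nocodazole release for mitosis), protein amounts in NP-40 versus SDS lysates quantified by mass spectrometry, three biological replicates.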
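Throughout, for thermal stability score vs G1/S (z-score of summed log2 fold changes over temperatures): synchronized HeLa Kyoto cells, proteins quantified by TMT10plex mass spectrometry, three biological replicates, mitosis taken 0.5 h after nocodazole release, G1/S directly after double thymidine block.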

Chain of SBF2 (chain, as listed by the source): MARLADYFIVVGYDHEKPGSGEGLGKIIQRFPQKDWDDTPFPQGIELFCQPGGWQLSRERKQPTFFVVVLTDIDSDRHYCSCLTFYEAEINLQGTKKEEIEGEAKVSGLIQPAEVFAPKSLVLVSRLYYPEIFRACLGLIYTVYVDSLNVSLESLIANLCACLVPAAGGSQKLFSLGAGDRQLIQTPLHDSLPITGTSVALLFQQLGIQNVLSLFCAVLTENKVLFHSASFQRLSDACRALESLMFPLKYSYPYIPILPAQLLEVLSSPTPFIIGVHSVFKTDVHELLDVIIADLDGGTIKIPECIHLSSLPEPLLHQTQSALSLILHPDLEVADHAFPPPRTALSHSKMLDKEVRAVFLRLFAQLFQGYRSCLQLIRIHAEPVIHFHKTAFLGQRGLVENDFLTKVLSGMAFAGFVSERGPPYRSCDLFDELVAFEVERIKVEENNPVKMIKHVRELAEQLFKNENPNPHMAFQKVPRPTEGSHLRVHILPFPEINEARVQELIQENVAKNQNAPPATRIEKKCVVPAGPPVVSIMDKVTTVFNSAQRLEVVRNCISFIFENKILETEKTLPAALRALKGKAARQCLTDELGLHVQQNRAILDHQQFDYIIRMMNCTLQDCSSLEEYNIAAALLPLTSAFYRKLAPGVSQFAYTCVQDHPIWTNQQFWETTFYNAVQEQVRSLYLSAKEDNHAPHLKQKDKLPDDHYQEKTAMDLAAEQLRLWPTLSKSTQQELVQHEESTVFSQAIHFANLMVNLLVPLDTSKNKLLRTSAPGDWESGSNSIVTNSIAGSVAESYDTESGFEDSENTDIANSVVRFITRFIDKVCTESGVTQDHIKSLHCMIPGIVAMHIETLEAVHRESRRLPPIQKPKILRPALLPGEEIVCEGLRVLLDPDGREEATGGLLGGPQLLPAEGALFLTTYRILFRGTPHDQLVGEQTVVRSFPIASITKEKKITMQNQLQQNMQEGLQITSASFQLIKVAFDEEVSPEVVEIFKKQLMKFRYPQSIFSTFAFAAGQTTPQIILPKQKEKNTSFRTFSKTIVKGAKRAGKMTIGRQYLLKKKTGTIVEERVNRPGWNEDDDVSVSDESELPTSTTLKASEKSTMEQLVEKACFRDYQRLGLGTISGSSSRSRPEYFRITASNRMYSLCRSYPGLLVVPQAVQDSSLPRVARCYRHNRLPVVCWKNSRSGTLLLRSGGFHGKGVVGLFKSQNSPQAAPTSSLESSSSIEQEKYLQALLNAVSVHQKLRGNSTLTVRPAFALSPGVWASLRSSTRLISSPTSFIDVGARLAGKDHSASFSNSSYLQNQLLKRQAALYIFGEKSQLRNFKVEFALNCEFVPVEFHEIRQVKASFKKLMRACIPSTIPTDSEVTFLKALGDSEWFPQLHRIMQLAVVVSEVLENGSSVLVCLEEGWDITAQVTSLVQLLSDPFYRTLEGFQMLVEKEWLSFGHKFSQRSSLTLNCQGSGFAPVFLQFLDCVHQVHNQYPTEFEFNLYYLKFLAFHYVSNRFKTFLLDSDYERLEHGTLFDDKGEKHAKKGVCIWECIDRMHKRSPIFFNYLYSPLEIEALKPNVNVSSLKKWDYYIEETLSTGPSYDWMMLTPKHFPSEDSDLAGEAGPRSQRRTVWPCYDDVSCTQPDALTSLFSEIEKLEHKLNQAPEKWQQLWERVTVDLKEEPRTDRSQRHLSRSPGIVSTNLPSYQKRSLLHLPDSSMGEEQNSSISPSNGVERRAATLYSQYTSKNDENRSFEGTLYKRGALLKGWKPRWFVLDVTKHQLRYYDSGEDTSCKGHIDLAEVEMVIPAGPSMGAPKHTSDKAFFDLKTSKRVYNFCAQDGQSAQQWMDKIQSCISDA

Substance | solubility change mitosis (log2) (HeLa Kyoto [1]) | melting temperature (HeLa Kyoto [2]; cell cycle stage: mitosis) [°C] | thermal stability score (HeLa Kyoto [3]; [4]) | thermal stability score (HeLa Kyoto [3]; cell cycle stage: mitosis) | melting temperature (HeLa Kyoto [2]; cell cycle stage: G1/S) [°C]
ACTR3 | -0.0203 |  |  |  | 
ARPC2 | -0.0639 |  |  |  | 
BPTF | -0.0311 |  |  |  | 
BTF3 | 0.172 |  |  |  | 
CDK2 | -0.211 |  |  |  | 
CTR9 | -0.0445 |  |  |  | 
DNPEP | -0.0236 |  |  |  | 
DTX3L | 0.0969 |  |  |  | 
EEF2 | -0.164 |  |  |  | 
FAM175B | -0.114 |  |  |  | 
FSCN1 | -0.135 |  |  |  | 
HIST1H4A | 0.331 |  |  |  | 
JMJD6 | -0.18 |  |  |  | 
MEEHGVTQTEHMATIEAHAVAQQVQQVHVATYTEHSMLSADEDSPSSPEDTSYDDSDILNSTAADEVTAHLAAAGPVGMAAAAAVATGKKRKRPHVFESNPSIRKRQQTRLLRKLRATLDEYTTRVGQQAIVLCISPSKPNPVFKVFGAAPLENVVRKYKSMILEDLESALAEHAPAPQEVNSELPPLTIDGIPVSVDKMTQAQLRAFIPEMLKYSTGRGKPGWGKESCKPIWWPEDIPWANVRSDVRTEEQKQRVSWTQALRTIVKNCYKQHGREDLLYAFEDQQTQTQATATHSIAHLVPSQTVVQTFSNPDGTVSLIQVGTGATVATLADASELPTTVTVAQVNYSAVADGEVEQNWATLQGGEMTIQTTQASEATQAVASLAEAAVAASQEMQQGATVTMALNSEAAAHAVATLAEATLQGGGQIVLSGETAAAVGALTGVQDANGLVQIPVSMYQTVVTSLAQGNGPVQVAMAPVTTRISDSAVTMDGQAVEVVTLEQ [NRF1] |  | 51.4 | -0.324 | 0.518 | 
MEKWYLMTVVVLIGLTVRWTVSLNSYSGAGKPPMFGDYEAQRHWQEITFNLPVKQWYFNSSDNNLQYWGLDYPPLTAYHSLLCAYVAKFINPDWIALHTSRGYESQAHKLFMRTTVLIADLLIYIPAVVLYCCCLKEISTKKKIANALCILLYPGLILIDYGHFQYNSVSLGFALWGVLGISCDCDLLGSLAFCLAINYKQMELYHALPFFCFLLGKCFKKGLKGKGFVLLVKLACIVVASFVLCWLPFFTEREQTLQVLRRLFPVDRGLFEDKVANIWCSFNVFLKIKDILPRHIQLIMSFCSTFLSLLPACIKLILQPSSKGFKFTLVSCALSFFLFSFQVHEKSILLVSLPVCLVLSEIPFMSTWFLLVSTFSMLPLLLKDELLMPSVVTTMAFFIACVTSFSIFEKTSEEELQLKSFSISVRKYLPCFTFLSRIIQYLFLISVITMVLLTLMTVTLDPPQKLPDLFSVLVCFVSCLNFLFFLVYFNIIIMWDSKSGRNQKKIS [ALG6] |  | 54.3 | 0.428 | -1.17 | 54.2
METLYRVPFLVLECPNLKLKKPPWLHMPSAMTVYALVVVSYFLITGGIIYDVIVEPPSVGSMTDEHGHQRPVAFLAYRVNGQYIMEGLASSFLFTMGGLGFIILDRSNAPNIPKLNRFLLLFIGFVCVLLSFFMARVFMRMKLPGYLMG [OSTC] |  | 54.8 | 0.174 | 0.407 | 
MEVGGDTAAPAPGGAEDLEDTQFPSEEAREGGGVHAVPPDPEDEGLEETGSKDKDQPPSPSPPPQSEALSSTSRLWSPAAPENSPTCSPESSSGGQGGDPSDEEWRSQRKHVFVLSEAGKPIYSRYGSVEALSATMGVMTALVSFVQSAGDAIRAIYAEDHKLVFLQQGPLLLVAMSRTSQSAAQLRGELLAVHAQIVSTLTRASVARIFAHKQNYDLRRLLAGSERTLDRLLDSMEQDPGALLLGAVRCVPLARPLRDALGALLRRCTAPGLALSVLAVGGRLITAAQERNVLAECRLDPADLQLLLDWVGAPAFAAGEAWAPVCLPRFNPDGFFYAYVARLDAMPVCLLLLGTQREAFHAMAACRRLVEDGMHALGAMRALGEAASFSNASSASAPAYSVQAVGAPGLRHFLYKPLDIPDHHRQLPQFTSPELEAPYSREEERQRLSDLYHRLHARLHSTSRPLRLIYHVAEKETLLAWVTSKFELYTCLSPLVTKAGAILVVTKLLRWVKKEEDRLFIRYPPKYSTPPATSTDQAAHNGLFTGL [MON1B] |  | 52.7 | -0.93 | -0.544 | 52.9
MFTSEKGVVEEWLSEFKTLPETSLPNYATNLKDKSSLVSSLYKVIQEPQSELLEPVCHQLFEFYRSGEEQLLQFTLQFLPELIWCYLAVSASRNVHSSGCIEALLLGVYNLEIVDKQGHTKVLSFTIPSLSKPSVYHEPSSIGSMALTESALSQHGLSKVVYSGPHPQREMLTAQNRFEVLTFLLLCYNAALTYMPSVSLQSLCQICSRICVCGYPRQHVRKYKGISSRIPVSSGFMVQMLTGIYFAFYNGEWDLAQKALDDIIYRAQLELYPEPLLVANAIKASLPHGPMKSNKEGTRCIQVEITPTSSRISRNAVTSMSIRGHRWKRHGNTELTGQEELMEISEVDEGFYSRAASSTSQSGLSNSSHNCSNKPSIGKNHRRSGGSKTGGKEKETTGESCKDHFARKQTQRAQSENLELLSLKRLTLTTSQSLPKPSSHGLAKTAATVFSKSFEQVSGVTVPHNPSSAVGCGAGTDANRFSACSLQEEKLIYVSERTELPMKHQSGQQRPPSISITLSTD [FAM126A] |  | 50.9 | 0.141 | 0.0377 | 
MLCRLGGRWLRPLPALQLWARDLPLAPVPTSGAKRPTLPVWAVAPVSAVHANGWYEALAASSPVRVAEEVLLGVHAATGLPWWGSILLSTVALRGAVTLPLAAYQHYILAKVENLQPEIKTIARHLNQEVAVRANQLGWSKRDARLTYLKNMRRLISELYVRDNCHPFKATVLVWIQLPMWIFMSFALRNLSTGAAHSEGFSVQEQLATGGILWFPDLTAPDSTWILPISVGVINLLIVEICALQKIGMSRFQTYITYFVRAMSVLMIPIAATVPSSIVLYWLCSSFVGLSQNLLLRSPGFRQLCRIPSTKSDSETPYKDIFAAFNTKFISRK [COX18] |  | 57.1 | 0.867 | -0.575 | 
MMKLKSNQTRTYDGDGYKKRAACLCFRSESEEEVLLVSSSRHPDRWIVPGGGMEPEEEPSVAAVREVCEEAGVKGTLGRLVGIFENQERKHRTYVYVLIVTEVLEDWEDSVNIGRKREWFKIEDAIKVLQYHKPVQASYFETLRQGYSANNGTPVVATTYSVSAQSSMSGIR [NUDT3] |  | 54.7 | -1.86 | -1.36 | 53.4
MPGRSCVALVLLAAAVSCAVAQHAPPWTEDCRKSTYPPSGPTYRGAVPWYTINLDLPPYKRWHELMLDKAPVLKVIVNSLKNMINTFVPSGKIMQVVDEKLPGLLGNFPGPFEEEMKGIAAVTDIPLGEIISFNIFYELFTICTSIVAEDKKGHLIHGRNMDFGVFLGWNINNDTWVITEQLKPLTVNLDFQRNNKTVFKASSFAGYVGMLTGFKPGLFSLTLNERFSINGGYLGILEWILGKKDVMWIGFLTRTVLENSTSYEEAKNLLTKTKILAPAYFILGGNQSGEGCVITRDRKESLDVYELDAKQGRWYVVQTNYDRWKHPFFLDDRRTPAKMCLNRTSQENISFETMYDVLSTKPVLNKLTVYTTLIDVTKGQFETYLRDCPDPCIGW [ASAH1] |  | 55.9 | -1.25 | -2.17 | 55.8
MPKNKKRNTPHRGSSAGGGGSGAAAATAATAGGQHRNVQPFSDEDASIETMSHCSGYSDPSSFAEDGPEVLDEEGTQEDLEYKLKGLIDLTLDKSAKTRQAALEGIKNALASKMLYEFILERRMTLTDSIERCLKKGKSDEQRAAAALASVLCIQLGPGIESEEILKTLGPILKKIICDGSASMQARQTCATCFGVCCFIATDDITELYSTLECLENIFTKSYLKEKDTTVICSTPNTVLHISSLLAWTLLLTICPINEVKKKLEMHFHKLPSLLSCDDVNMRIAAGESLALLFELARGIESDFFYEDMESLTQMLRALATDGNKHRAKVDKRKQRSVFRDVLRAVEERDFPTETIKFGPERMYIDCWVKKHTYDTFKEVLGSGMQYHLQSNEFLRNVFELGPPVMLDAATLKTMKISRFERHLYNSAAFKARTKARSKCRDKRADVGEFF [IFRD1] |  |  | 0.75 | 1.11 | 56.4
MQPPGPPPAYAPTNGDFTFVSSADAEDLSGSIASPDVKLNLGGDFIKESTATTFLRQRGYGWLLEVEDDDPEDNKPLLEELDIDLKDIYYKIRCVLMPMPSLGFNRQVVRDNPDFWGPLAVVLFFSMISLYGQFRVVSWIITIWIFGSLTIFLLARVLGGEVAYGQVLGVIGYSLLPLIVIAPVLLVVGSFEVVSTLIKLFGVFWAAYSAASLLVGEEFKTKKPLLIYPIFLLYIYFLSLYTGV [YIPF4] |  | 56.1 | -0.481 | -2.96 | 57.7
MREYKVVVLGSGGVGKSALTVQFVTGSFIEKYDPTIEDFYRKEIEVDSSPSVLEILDTAGTEQFASMRDLYIKNGQGFILVYSLVNQQSFQDIKPMRDQIIRVKRYERVPMILVGNKVDLEGEREVSYGEGKALAEEWSCPFMETSAKNKASVDELFAEIVRQMNYAAQPNGDEGCCSACVIL [RAP2B] |  | 60.7 | -0.0087 | 0.542 | 59.2
MTAEETVNVKEVEIIKLILDFLNSKKLHISMLALEKESGVINGLFSDDMLFLRQLILDGQWDEVLQFIQPLECMEKFDKKRFRYIILKQKFLEALCVNNAMSAEDEPQHLEFTMQEAVQCLHALEEYCPSKDDYSKLCLLLTLPRLTNHAEFKDWNPSTARVHCFEEACVMVAEFIPADRKLSEAGFKASNNRLFQLVMKGLLYECCVEFCQSKATGEEITESEVLLGIDLLCGNGCDDLDLSLLSWLQNLPSSVFSCAFEQKMLNIHVDKLLKPTKAAYADLLTPLISKLSPYPSSPMRRPQSADAYMTRSLNPALDGLTCGLTSHDKRISDLGNKTSPMSHSFANFHYPGVQNLSRSLMLENTECHSIYEESPERDTPVDAQRPIGSEILGQSSVSEKEPANGAQNPGPAKQEKNELRDSTEQFQEYYRQRLRYQQHLEQKEQQRQIYQQMLLEGGVNQEDGPDQQQNLTEQFLNRSIQKLGELNIGMDGLGNEVSALNQQCNGSKGNGSNGSSVTSFTTPPQDSSQRLTHDASNIHTSTPRNPGSTNHIPFLEESPCGSQISSEHSVIKPPLGDSPGSLSRSKGEEDDKSKKQFVCINILEDTQAVRAVAFHPAGGLYAVGSNSKTLRVCAYPDVIDPSAHETPKQPVVRFKRNKHHKGSIYCVAWSPCGQLLATGSNDKYVKVLPFNAETCNATGPDLEFSMHDGTIRDLAFMEGPESGGAILISAGAGDCNIYTTDCQRGQGLHALSGHTGHILALYTWSGWMIASGSQDKTVRFWDLRVPSCVRVVGTTFHGTGSAVASVAVDPSGRLLATGQEDSSCMLYDIRGGRMVQSYHPHSSDVRSVRFSPGAHYLLTGSYDMKIKVTDLQGDLTKQLPIMVVGEHKDKVIQCRWHTQDLSFLSSSADRTVTLWTYNG [WDR47] |  | 52.6 | -2.39 | -1.92 | 54.4
MTMAAAAVVARGAGARAATAAALRGGCGTAARGRPCAGPARPLCTAPGTAPDMKRYLWERYREAKRSTEELVPSIMSNLLNPDAIFSNNEMSLSDIEIYGFDYDYTLVFYSKHLHTLIFNAARDLLINEHRYPAEIRKYEYDPNFAIRGLHYDVQRAVLMKIDAFHYIQLGTVYRGLSVVPDEEVIEMYEGSHVPLEQMSDFYGKSSHGNTMKQFMDIFSLPEMTLLSCVNEYFLKNNIDYEPVHLYKDVKDSIRDVHIKGIMYRAIEADIEKYICYAEQTRAVLAKLADHGKKMFLITNSPSSFVDKGMSYIVGKDWRDLFDVVIVQAEKPNFFNDKRRPFRKMNEKGVLLWDKIHKLQKGQIYKQGNLYEFLKLTGWRGSRVLYFGDHIYSDLADLTLKHGWRTGAIIPELRSELKIMNTEQYIQTMTWLQTLTGLLEQMQVHRDAESQLVLQEWKKERKEMREMTKSFFNAQFGSLFRTDQNPTYFLRRLSRFADIYMASLSCLLNYDVSHTFYPRRTPLQHELPAWSERPPTFGTPLLQEAQAK [NT5DC3] |  | 54 | -1.05 | -1.22 | 53.4
SBF2 |  | 52.3 | -0.139 | 0.0344 | 
TIMP1 |  | 54.5 | 0.849 | -1.24 | 54.8
